Patent publication US20080045450A1, “GLP-2 Derivatives” (priority 1996, published 2008)

Assay: Helix content by circular dichroism (CD) at 222 nm in aqueous solution
Assay type: physicochemical
Text: The size of the partially helical, micelle-like aggregates may be estimated by size-exclusion chromatography. Similarly, the apparent (critical micelle concentrations) CMC's of the peptides may be estimated from the concentration dependent fluorescence in the presence of appropriate dyes (e.g. Brito, R. & Vaz, W. (1986) Anal. Biochem. 152, 250-255).
For the GLP-2 derivatives forming partially structured micellar-like aggregates in aqueous solution the helix content remains constant above 30% at concentrations of 10 μM. The aggregated structured conformation is an inherent property of the derivative present in water or dilute aqueous buffer without the need for any additional structure-inducing components. Note that the CD signal is proportional to the average content of α-helix in the peptides, i.e., a CD value of −1 corresponds to 10% α-helix content under these conditions.

With “native GLP-2: human glucagon-like peptide-2, a 33 amino acid residue peptide; parent peptide of the derivatives” the helix content (at 500 μM concentration, in parallel with peptide self-association) was 30-35% and the helix content (starting value at low peptide concentration, before the increase seen with increasing concentration) was 10-15%.
